This passage reports Km and kcat results from article PMC4119023.

Broadly, the Km is the concentration of substrate that gives half-maximal velocity. What is called kcat is the maximal rate divided by the concentration of active sites.

Substrate in series [1]: Cc1cc(=O)oc2c(F)c(OP(=O)(O)O)c(F)cc12
Description: steady-state phosphatase assay. The class given is biochemical, Kluyveromyces lactis. Conditions: 50 mM MES pH 5.5, 30 °C, 10 μM enzyme.

Substrate in series [2]: Cc1cc(=O)oc2c(F)c(OP(=O)(O)O)c(F)cc12
Description: steady-state phosphatase assay. The class given is biochemical, Homo sapiens. Conditions: 50 mM MES pH 5.5, 30 °C, 10 μM enzyme.

B1: KlRtr1 FL (Kluyveromyces lactis NRRL Y-1140) (protein)
chain: MATIEEIKEVVLKPYTNHRQLTIREVETISINLIDLLITKDVKDARTMKYISRFLTKQDYADLVQERNLVKRCGYPLCSKSQARVRDPFADVQMTNFLRQNNPYAYLTEYCTKAHFRCSQFYQFQLSDEALFARVGVHLDDYEPPSEIQLLEEVLARESDVKQMIRGMTDLKLADDDSREEMERDISDMLADIKIVEINEPNIIGDLGRDR
On to B1, for which, in series [1] (EDTA-treated enzyme), the Michaelis constant (Km) is 587 ± 70 µM and the turnover number (kcat) is 0.001 ± 3e-05 s⁻¹.

B2: KlRtr1 FL (Kluyveromyces lactis NRRL Y-1140; E197Q) (protein)
chain: MATIEEIKEVVLKPYTNHRQLTIREVETISINLIDLLITKDVKDARTMKYISRFLTKQDYADLVQERNLVKRCGYPLCSKSQARVRDPFADVQMTNFLRQNNPYAYLTEYCTKAHFRCSQFYQFQLSDEALFARVGVHLDDYEPPSEIQLLEEVLARESDVKQMIRGMTDLKLADDDSREEMERDISDMLADIKIVQINEPNIIGDLGRDR
Take B2: in series [1] (EDTA-treated enzyme), the Km was 529 ± 45 µM and the kcat turned out to be 0.0016 ± 4e-05 s⁻¹.

B3: KlRtr1 NTD (Kluyveromyces lactis NRRL Y-1140) (protein)
chain: MATIEEIKEVVLKPYTNHRQLTIREVETISINLIDLLITKDVKDARTMKYISRFLTKQDYADLVQERNLVKRCGYPLCSKSQARVRDPFADVQMTNFLRQNNPYAYLTEYCTKAHFRCSQFYQFQLSDEALFARVGVHLDDYEPPSEIQLLEEVLA
Turning to B3, in series [1], the Michaelis-Menten constant (Km) came to 694 ± 74 µM and the kcat was 0.0015 ± 5e-05 s⁻¹.

B4: hRPAP2 NTD (Homo sapiens) (protein)
chain: MADFAGPSSAGRKAGAPRCSRKAAGTKQTSTLKQEDASKRKAELEAAVRKKIEFERKALHIVEQLLEENITEEFLMECGRFITPAHYSDVVDERSIVKLCGYPLCQKKLGIVPKQKYKISTKTNKVYDITERKSFCSNFCYQASKFFEAQIPKTPVWVREEERHPDFQLLKEEQSGHSGEEVQLCSKAI
Regarding B4, in series [2], the Michaelis constant (Km) was 1668 ± 205 µM and the turnover number (kcat) was 0.0005 ± 3e-05 s⁻¹.
